Source: publication PMC2648964, “Molecular Basis for the Sorting of the SNARE VAMP7 into Endocytic Clathrin-Coated Vesicles by the ArfGAP Hrb” (Cell, 2008)

Assays:
Experiment in all cases: ITC; VAMP7 longin domain (1.4 ml, 0.15-0.2 mM) in the cell, Hrb at 1.5-2 mM titrated in 30-40 injections of 4-8 μl; all GST tags removed
Details in all cases: both partners purified
Hrb(1-176) His6 = target: T1, Hrb(1-176) His6 (human, UniProt P52594-1 1-176)
T1 construct: human Hrb, residues 1-176; also called residues 1–176 of Hrb; source: E. coli BL21(DE3)/pLysS, purified (Ni-NTA-agarose); not shown: His6, C-terminal, kept
T1 sequence (looked up): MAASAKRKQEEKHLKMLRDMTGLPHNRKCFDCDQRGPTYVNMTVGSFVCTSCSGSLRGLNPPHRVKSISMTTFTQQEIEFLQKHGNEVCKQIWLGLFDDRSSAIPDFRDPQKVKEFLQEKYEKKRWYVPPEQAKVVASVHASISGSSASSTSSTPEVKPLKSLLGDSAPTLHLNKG

[1] = target: T2, Hrb(1-176) His6 L163P/L164P (human, UniProt P52594-1 1-176, L163P | L164P)
T2 construct: human Hrb, residues 1-176, with L163P and L164P; source: E. coli BL21(DE3)/pLysS, purified (Ni-NTA-agarose); not shown: His6, C-terminal, kept
T2 sequence (looked up): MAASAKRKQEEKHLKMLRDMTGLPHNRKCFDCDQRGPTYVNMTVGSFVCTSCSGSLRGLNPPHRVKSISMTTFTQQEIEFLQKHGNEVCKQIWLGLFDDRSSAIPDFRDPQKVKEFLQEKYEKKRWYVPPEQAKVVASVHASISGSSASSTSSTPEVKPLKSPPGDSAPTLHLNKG

[2] = target: T3, Hrb(1-176) His6 L160S/L163S (human, UniProt P52594-1 1-176, L160S | L163S)
T3 construct: human Hrb, residues 1-176, with L160S and L163S; source: E. coli BL21(DE3)/pLysS, purified (Ni-NTA-agarose); not shown: His6, C-terminal, kept
T3 sequence (looked up): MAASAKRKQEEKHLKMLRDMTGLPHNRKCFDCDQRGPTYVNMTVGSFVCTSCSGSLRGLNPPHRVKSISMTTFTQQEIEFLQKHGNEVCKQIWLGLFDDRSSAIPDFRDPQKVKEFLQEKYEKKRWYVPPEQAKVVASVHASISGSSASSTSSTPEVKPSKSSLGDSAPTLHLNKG

[3] = target: T4, Hrb(1-176) His6 L171S/L173S (human, UniProt P52594-1 1-176, L171S | L173S)
T4 construct: human Hrb, residues 1-176, with L171S and L173S; source: E. coli BL21(DE3)/pLysS, purified (Ni-NTA-agarose); not shown: His6, C-terminal, kept
T4 sequence (looked up): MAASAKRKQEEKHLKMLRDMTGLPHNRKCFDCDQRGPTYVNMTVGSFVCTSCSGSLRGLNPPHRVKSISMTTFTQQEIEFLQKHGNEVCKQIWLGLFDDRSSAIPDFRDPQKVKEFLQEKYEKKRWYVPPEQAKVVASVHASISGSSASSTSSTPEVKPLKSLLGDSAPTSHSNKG

B1: VAMP7 longin domain L43S/Y45S, GST tag removed (domain or fragment, mouse, UniProt P70280 1-120, looked up)
chain: MAILFAVVARGTTILAKHAWCGGNFLEVTEQILAKIPSENNKSTSSHGNYLFHYICQDRIVYLCITDDDFERSRAFSFLNEVKKRFQTTYGSRAQTALPYAMNSEFSSVLAAQLKHHSEN
notes: VAMP7 longin domain with L43S and Y45S; limits as the parent GST-VAMP7 longin domain (mouse 1-120 by the antibody paragraph); Used in ITC; source: E. coli BL21(DE3)/pLysS, purified, GST removed with thrombin; not shown: GST, N-terminal, cleaved
- Kd (Hrb(1-176) His6): > 300 µM

B2: VAMP7 longin domain, GST tag removed (domain or fragment, mouse, UniProt P70280 1-120, looked up)
chain: MAILFAVVARGTTILAKHAWCGGNFLEVTEQILAKIPSENNKLTYSHGNYLFHYICQDRIVYLCITDDDFERSRAFSFLNEVKKRFQTTYGSRAQTALPYAMNSEFSSVLAAQLKHHSEN
notes: VAMP7 longin domain; GST-VAMP7 longin domain is described as mouse VAMP7 amino acids 1-120 in the antibody paragraph; also called VAMP7 LD; source: E. coli BL21(DE3)/pLysS, purified, GST removed with thrombin; not shown: GST, N-terminal, cleaved
- Kd (Hrb(1-176) His6): 10.5 µM
- Kd [1]: > 300 µM
- Kd [2]: > 300 µM
- Kd [3]: > 300 µM
